Test results published in paper PMC7352312.
Values belong to the substance of their own block, whether it stands above or below them.

Legend:
[1] = target: N-terminal domain of major ampullate silk protein (MaSpN) from Nephila antipodiana, construct T1-E137 (Nephila antipodiana); assay: SEC; Superdex 200 Increase 10/300 GL, 20 mM sodium phosphate pH 7.0, 50 mM NaCl, ~600 µM protein injected; self-association
[2] = target: N-terminal domain of major ampullate silk protein (MaSpN) from Nephila antipodiana, construct T1-E137 (Nephila antipodiana); assay: AUC; sedimentation velocity, 1.5 mg/mL protein, 20 mM phosphate, 0 mM NaCl, pH 7.0-8.0 (mutants and MaSpN at pH 7.0), 24 °C; self-association
[3] = target: AcSpN A71R mutant (Nephila antipodiana) (Nephila antipodiana); assay: AUC; sedimentation velocity, 1.5 mg/mL protein, 20 mM phosphate, 300 mM NaCl, pH 7.0-8.0 (mutants and MaSpN at pH 7.0), 24 °C; self-association
[4] = target: AcSpN R107E mutant (Nephila antipodiana) (Nephila antipodiana); assay: AUC; sedimentation velocity, 1.5 mg/mL protein, 20 mM phosphate, 0 mM NaCl, pH 7.0-8.0 (mutants and MaSpN at pH 7.0), 24 °C; self-association
[5] = target: AcSpN K103E mutant (Nephila antipodiana) (Nephila antipodiana); assay: as above
[6] = target: AcSpN K122E mutant (Nephila antipodiana) (Nephila antipodiana); assay: AUC; sedimentation velocity, 1.5 mg/mL protein, 20 mM phosphate, 150 mM NaCl, pH ≥ 7.0 (mutants and MaSpN at pH 7.0), 24 °C; self-association
[7] = target: N-terminal domain of aciniform silk protein (AcSpN) from Nephila antipodiana, construct S15-E153 (renumbered S4-E142) (Nephila antipodiana); assay: AUC; sedimentation velocity, 1.5 mg/mL protein, 20 mM phosphate, 150 mM NaCl, pH < 7.0, 24 °C; self-association
[8] = target: N-terminal domain of aciniform silk protein (AcSpN) from Nephila antipodiana, construct S15-E153 (renumbered S4-E142) (Nephila antipodiana); assay: AUC; sedimentation velocity, 1.5 mg/mL protein, 20 mM phosphate, 300 mM NaCl, pH 5.85 and 5.50, 24 °C; self-association
[9] = target: N-terminal domain of aciniform silk protein (AcSpN) from Nephila antipodiana, construct S15-E153 (renumbered S4-E142) (Nephila antipodiana); assay: AUC; sedimentation velocity, 1.5 mg/mL protein, 20 mM phosphate, 150 mM NaCl, pH ≥ 7.0 (mutants and MaSpN at pH 7.0), 24 °C; self-association

Substance: N-terminal domain of major ampullate silk protein (MaSpN) from Nephila antipodiana, construct T1-E137 (domain or fragment)
stoichiometry N [1]: 2 | stoichiometry N [2]: 2

Substance: AcSpN R107E mutant (Nephila antipodiana) (domain or fragment)
stoichiometry N [4]: 2

Substance: AcSpN K103E mutant (Nephila antipodiana) (domain or fragment)
stoichiometry N [5]: 2

The remaining lines, values ahead:

percent in a dimeric form [3]: 10%
Substance: AcSpN A71R mutant (Nephila antipodiana) (domain or fragment)

stoichiometry N [6]: 2
Substance: AcSpN K122E mutant (Nephila antipodiana) (domain or fragment)

stoichiometry N [7]: 2 | stoichiometry N [8]: 2 | stoichiometry N [9]: 2
Substance: N-terminal domain of aciniform silk protein (AcSpN) from Nephila antipodiana, construct S15-E153 (renumbered S4-E142) (domain or fragment)
